Data taken from patent publication US20140079722A1, “EXTRACELLULAR TARGETED DRUG CONJUGATES” (CENTROSE, LLC, priority 2011, published 2014).

Experiments:
[1] = Single intraperitoneal dose tolerability; type: in vivo, male BALB/c mice; details: drug loading of 2, 500 mg/kg intraperitoneal
Protocol: In a separate experiment, male BALB/c mice (BALB/cAnNHsd, Harlan Laboratories) were administered a single and immediate dose of 500 mg/kg of M53-PEG24-CEN09-106 with a drug loading of 2 drugs per antibody by intraperitoneal injection. Animal weights were recorded over a 22 day period and visual observations were made over a period of 146 days and compared to mice receiving a vehicle control. […] Mice regained normal control body weight by day 15.

A549 xenograft = A549 xenograft model (cell implant); type: in vivo, Hsd:Athymic Nude-Foxn1nu mice
Protocol: Briefly, to establish a non-small-cell lung cancer disease model, 6×10^6 A549 cells in 200 μL, RPMI1640+50% Matrigel HC (BD Biosciences, San Jose, Calif.) were implanted into the left flank of Hsd:Athymic Nude-Foxn1^nu mice (Harlan, Indianapolis, Ind.). Therapy with antibody-drug conjugates was then initiated when the tumor volume in groups of 5 animals averaged ˜300 mm^3. Treatment using vehicle control, 0.1 and 1 mg/kg M53-PEG24-CEN09-106, and 10 mg/kg control M53-PEG24-CEN09-106 (a control conjugate with a drug loading of 7 drugs per antibody where the antibody's target is not on the cell surface but drug and linker and antibody isotype are the same as M53-PEG24-CEN09-106) were all administered i.v. using the schedule of one injection every 7 days with 3 total injected doses (q7d×3). 15 mg/kg paclitaxel dosed at q2d×5 served as a positive control treatment group. Using this schedule, tumor volumes were measured for each group using calibrated vernier calipers and plotted against first day of tumor implant for 54 days post-implant and 40 days post-initial dose, to produce the graph shown in FIG. 3.

H520 = assay: In vitro cancer cell cytotoxicity (CellTiter-Glo cell viability); type: cell-based, human
Text: EDCs were constructed using linker-ready agents PEG24-CEN09-106, PEG24-CEN09-107, PEG24-CEN10-110 and PEG24-CEN-319. As described in Example 1, linker-ready agent PEG24-CEN-319 contain digitoxigenin while the others contain scillarenin. Linker-ready agents PEG24-CEN09-106, PEG24-CEN09-107, PEG24-CEN10-110 all use different linkers. Specifically, PEG24-CEN09-106 and PEG24-CEN09-107 have different sugars in the linker, while PEG24-CEN10-110 contains a longer linker that includes a primary amine.
All of the cell lines below, except H520, express the Na,K-ATPase with the dysadherin subunit and so present the target of the antibody and drug in close proximity.

[2] = Pharmacokinetics with varying drug loading (antigen binding ELISA); type: in vivo; details: SCID beige mice
Protocol: Serum was isolated from blood samples taken by retro-orbital blood collection at 1 hour, and 1, 2, 3, 6, and 15 days post-injection. Blood was collected into heparin coated tubes followed by centrifugation (5,000×g, 5 minutes) to isolate plasma.
Antigen capture plates that were prepared by coating wells of 96 well clear bottom ELISA plates with CENP018 (SEQ ID NO: 17) conjugated to BSA at 400 ng BSA-peptide conjugate per well in 100 uL of 200 mM carbonate buffer, pH 9.6 overnight at 4° C. Antigen coated ELISA plates were washed (×3) with PBS pH 7, blocked 30 min with PBS pH 7 containing 1% NFDM (PBS+NFDM), and then washed (×3) with PBS, pH 7. […] Goat anti-mouse IgG alkaline phosphatase (cat. number: A1418, Sigma-Aldrich, St. Louis, Mo.) was diluted 1:15,000 in PBS+NFDM and added (100 uL) to each well, incubated 30 min at RT, and the wells washed (×3) with PBS, pH 7. PNPP at 1 mg/mL in 1M DEA with 50 mM MgCl2, pH 9.8 was added (100 uL per well), and the absorbance at 405 nm was determined using a Wallac Victor^2 Model 1420-041 assay plate reader (Perkin Elmer, Gaithersburg, Md.) every 5 minutes for a total of 6 reads. Absorbance values from known antibody concentration standards were used to determine the concentration of antibody in the serum samples.

A549 xenografts = assay: Second A549 xenograft study (tumor fragments); type: in vivo, female HRLN nu/nu mice
Protocol: Briefly, to establish a non-small-cell lung cancer disease model, subcutaneous A549 xenografts were initiated in female HRLN nu/nu mice by implanting 8 mm^3 A549 tumor fragments subcutaneously into the left flank. Tumor growth was monitored, and mice bearing tumors of 60-180 mm^3 were selected for the study. Tumor-bearing mice (n=7 mice/group) with a group average tumor volume of approximately 110 mm^3 were treated i.p. with 5 mgs/kg M53-PEG24-CEN09-106 at q3d×4, 20 mg/kg scillarenin-4-amino-deoxy-L-xylopryanoside (an intermediate in the construction of M53-PEG24-CEN09-106 and known cytotoxin) at q2dx5, and 15 mg/kg paclitaxel at q1d×5. Tumor volumes were measured for each group using calibrated vernier calipers plotted against day of first dose for 100 days to produce the graph shown in FIG. 4.
Paclitaxel at its optimum dosing produced 80% growth inhibition of the tumor when compared to vehicle.

H460 xenograft = H460 xenograft model; type: in vivo, Hsd:Athymic Nude-Foxn1nu mice
Protocol: Briefly, to establish a large-cell lung cancer disease model, 1×10^6 H-460 cells in 100 μL RPMI1640+30% Matrigel HC (BD Biosciences, San Jose, Calif.) were implanted into the left flank of Hsd:Athymic Nude-Foxn1^nu mice (Harlan, Indianapolis, Ind.). Therapy was initiated when the tumor size in groups of 5 animals averaged ˜200 mm^3. Treatment using vehicle control, M53-PEG24-CEN09-106 at 0.1 and 1 mg/kg, and 10 mg/kg control M53-PEG24-CEN09-106 (as described above) consisted of multiple i.v. injections using the schedule of one injection every 7 days for 2 injections (q7d×2). Paclitaxel served as a positive control treatment group and was dosed i.v. at 15 mg/kg using the schedule of one injection every 2 days for 5 injections (q2d×5). Using this schedule, tumor volumes were measured for each group using calibrated vernier calipers and plotted against day of tumor implant for 24 days post-implant and 12 days post-initial dose, graphed and shown in FIG. 5.

B1: M53-PEG24-CEN09-106: Class 1 EDC: antibody M53 conjugated to linker-ready agent PEG24-CEN09-106 (scillarenin, 4-amino-xyloside, PEG24) (conjugate)
heavy: EVQLVESGGGLVQPKGTLKLSCAASGFSFNTHAMNWVRQAPGKSLEWVARTMSKSNNYATYYADSVKDRFIIRADDSQSMLYLQMNNLKTEDTAMYYCVRDDPKRGMDYWGQGTSVTVSSAKTTPPSVYPLAPGSAAQTNSMVTLGCLVKGYFPEPVTVTWNSGSLSSGVHTFPAVLQSDLYTLSSSVTVPSSTWPSETVTCNVAHPASSTKVDKKIE
light: GIVMSQSPSSLAVSVGEKVTMSCKPSQSLLYSRNQKIYLAWYQQKPGQSPKLLIYWASTRESGVPDRFTGSGSGTDFTLIISSVRAEDLAVYYCQQYYNYPLTFGAGTKLELKRADAAPTVSIFPPSSEQLTSGGASVVCFLNNFYPKDINVKWKIDGSERQNGVLNSWTDQDSKDSTYSMSSTLTLTKDEYERHNSYTCEATHKTSTSPIVKSFNR
**Q.** With B1 as the molecule, how does the visual observations ([1]; 146 days) read?
**A.** no overt signs of toxicity

**Q.** And the “average loss in body weight” value ([1]; first 6 days post injection)?
**A.** 30%

**Q.** And the “growth inhibition of the tumor compared to vehicle” value (A549 xenograft; drug loading of 8, 0.1 mg/kg i.v. q7dx3, A549 xenograft)?
**A.** 35%

**Q.** What about the “growth inhibition of the tumor compared to vehicle” value (A549 xenograft; drug loading of 8, 1 mg/kg i.v. q7dx3, A549 xenograft) of the same molecule?
**A.** 65%

**Q.** What about the EC50 (H520; H520 cells (no FXYD5 surface expression), 3 days incubation) of the same molecule?
**A.** > 50 nM

**Q.** And the “activity on H520 cells” value (H520; H520 cells do not express dysadherin (FXYD5))?
**A.** not active

**Q.** What about the “serum half-life of detectable antibody” value ([2]; drug loading of 2, 1 mg/kg tail vein) of the same molecule?
**A.** approximately 7 days

**Q.** And the “serum half-life of detectable antibody” value ([2]; drug loading of 5, 1 mg/kg tail vein)?
**A.** ~96 h

**Q.** And the “serum half-life of detectable antibody” value ([2]; drug loading of 9, 1 mg/kg tail vein)?
**A.** ~48 h

**Q.** And the “growth inhibition of the tumor compared to vehicle” value (A549 xenografts; 100 days post-initial dose, EDC (loading 3) 5 mg/kg i.p. q3dx4, scillarenin aminoxyloside 20 mg/kg q2dx5, paclitaxel 15 mg/kg q1dx5)?
**A.** 72%

**Q.** What about the weight loss (A549 xenografts; same dosing as efficacy arms, second A549 xenograft study) of the same molecule?
**A.** no weight loss

**Q.** What about the weight loss (H460 xenograft; EDC 0.1 mg/kg q7dx2, paclitaxel 15 mg/kg q2dx5, H460 xenograft) of the same molecule?
**A.** no weight loss

**Q.** What about the “growth inhibition of the tumor compared to vehicle” value (H460 xenograft; drug loading of 8, 0.1 mg/kg i.v. q7dx2, H460 xenograft) of the same molecule?
**A.** 38%

**Q.** What about the “growth inhibition of the tumor compared to vehicle” value (H460 xenograft; drug loading of 8, 1 mg/kg i.v. q7dx2, H460 xenograft) of the same molecule?
**A.** 73%
